Drawing on paper PMC8133392, this text covers Kd for one substance.

What all share (experiment): other fluorescence titration
Test [1] has as its target H3K4ac peptide.
Test [2] deals with H3K4me3 peptide.
Test [3] addresses unmodified H3 (aa 1–12) peptide (UniProt P68431).

A word on the Kd: it is the concentration at which binding is half-saturated. Low values mean a tighter complex, high ones a looser complex. Take “ZZEF1ZZ2 with H1877 replaced by tryptophan (for tryptophan fluorescence) (domain or fragment)”: the values for the Kd in test [1], in test [2] and in test [3] were 11 µM, 4.8 µM and 4.3 µM, respectively.
